B1: library; numbered along this chain (parent)
chain: MAAAAAAAAEQQSSNGPVKKSMREKAVERRSVNKEHNSNFKAGYIPIDEDRLHKTGLRGRKGNLAICVIILLFILAVINLIITLVIWAVIRIGPNGCDSMEFHESGLLRFKQVSDMGVIHPLYKSTVGGRRNENLVITGNNQPIVFQQGTTKLSVENNKTSITSDIGMQFFDPRTQNILFSTDYETHEFHLPSGVKSLNVQKASTERITSNATSDLNIKVDGRAIVRGNEGVFIMGKTIEFHMGGNMELKAENSIILNGSVMVSTTRLPSSSSGDQLGSGDWVRYKLCMCADGTLFKVQVTSQNMGCQISDNPCGNTH

Variants of: B1
Experiment: SGCB cell-surface expression functional score (HA stain, bin4 vs bin1, normalised to synonymous) (log10 ratio); higher = more cell-surface SGCB (functional)
Procedure: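 Deep mutational scan of full-length human SGCB (YFP-SGCB-HA, NNN codon sublibraries A-F) delivered by lentivirus at low MOI into ADG-HEK293 cells stably expressing SGCA, SGCD and SGCG. YFP-positive cells were stained for surface HA on unpermeabilized cells and FACS-sorted into bins. The functional score is log10(frequency in high bin 4 / frequency in low bin 1), normalised per chunk so that synonymous variants have mean 0 and SD 0.5. Scores are the median over codons and over duplicate biological replicates; scores below -0.5 are called non-functional. Scale: negative means deleterious.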

SGCB cell-surface expression functional score (log10) of substitutions, site by site:
V27: S 0.13; H 0.05; K 0.02; C -0.05; Q 0.09; T 0.04; N 0.45; Y 0.26; G -0.22; F 0.28; M -0.41; P -0.17; E 0.04; L 0.26; A 0.22; I 0.03; R 0.06; W 0.1; D -0.2
S31: C 0.19; V 0.19; D 0.16; H 0.19; T 0.06; Q -0.35; R -0.03; G 0.19; K 0.25; F -0.24; Y -0.26; E 0.24; P 0.13; A -0.25; L 0.11; M -0.69; I 0.39; W 0.21; N 0.37
E28: Q 0; I 0.42; V 0.15; M 0.57; L 0.05; T 0.1; A -0.15; C 0.35; P 0.08; K -0.15; G -0.33; H -0.19; D -0.25; F 0.2; W -0.12; S 0.21; Y 0.37; N -0.09; R 0.1
S21: T 0.07; H 0.03; N 0.32; G 0.23; A 0.2; K 0.75; I 0.3; W 0.3; E -0.28; D 0.33; C 0.5; Q -0.25; P 0.12; Y -0.19; F -0.32; L -0.08; V 0.14; M -0.02; R 0.08
R23: F 0.12; S -0.16; C 0.49; M -0.27; Q 0.33; L 0.16; D -0.13; G 0.48; W -0.61; Y 0.05; V 0.59; K -0.04; P 0.31; E 0.28; I -0.31; A -0.06; N 0.03; H 0.2; T 0.24
K25: N 0.42; A -0.05; L 0.18; P 0.05; M -0.1; R -0.14; E 0.07; V 0.16; I 0.13; Y -0.31; S 0.46; G -0.06; H -0.78; T 0.27; F -0.28; Q 0.5; D 0.19; C 0.39; W -0.25
K34: Y 0.56; N -0.07; M -0.24; S 0.52; V 0.44; L 0.21; T 0.27; H 0.6; I -0.05; D 0.26; Q -0.08; W 0.11; P 0.25; R 0.1; E 0.34; A -0.03; F -0.14; G 0.01; C 0.33
R29: T -0.04; W 0.21; P 0.32; V -0.29; M -0.81; S 0.25; F -0.17; N 0.21; C 0.5; A 0.46; I 0.13; H -0.15; Y 0.23; Q 0.16; K -0.66; L -0.3; G 0.3; D -0.22; E 0.41
A26: T 0.24; K 0.41; H 0.39; E 0.27; Y -0.11; S 0.09; V 0.53; M 0.77; G -0.21; P 0.09; N -0.24; F 0.47; Q 0.19; I 0.06; W 0.15; D 0.34; R 0.15; L -0.05; C -0.13
E35: I 0.08; H 0.32; L -0.2; Q -0.06; S 0.03; T 0.06; A 0.3; R 0.18; K 0.23; W 0.28; M 0.1; P -0.21; F -0.1; C -0.07; N 0.01; G 0.11; D 0.11; V 0.1; Y 0.26
N33: E 0.11; Y 0.04; I 0.03; D 0.4; Q -0.23; C -0.01; T -0.07; G 0.33; S -0.01; F 0.1; M 0.11; A 0.36; K 0.24; H 0.48; R 0.1; V 0.23; L -0.11; W -0.14; P 0.04
V32: W -0.05; Q -0.03; Y -0.45; H 0.35; P 0.11; F -0.5; E -0.59; C 0.14; A 0.26; T -0.08; R 0.37; G 0.1; D 0.47; K -0.04; M -0.13; L -0.06; S 0.11; I 0.36; N 0.67
N37: G -0.15; K -0.39; E 0.3; H 0.41; L 0.05; D -0.35; C 0.35; M -0.37; I 0.02; P -0.1; F -0.14; A 0.08; Q -0.21
M22: Q 0.27; R 0.01; T 0.16; V 0.01; S 0.52; L 0.37; K 0.08; N 0.39; A 0.08; C 0.56; E 0.07; Y -0.14; H 0.19; W 0.08; F 0.1; P 0.17; D -0.21; I -0.22; G -0.11
E24: M -0.63; S 0.26; A 0; D 0.17; R -0.41; K 0.09; F -0.05; Q 0.01; N 0.02; C -0.3; W 0.05; T 0.2; G 0.08; I 0.08; V 0.26; L 0.02; P 0; H 0.46; Y -0.19
H36: Q 0.22; R -0.04; G 0.11; Y 0.15; F -0.16; M -0.06; I 0.09; N 0.25; P 0.32; W -0.09; E 0.05; T -0.13; S 0.21; A 0.35; D 0.26; L -0.04; C -0.16; K 0.53; V 0.28
K20: T 0; E 0.06; D 0.22; N -0.16; W 0.05; L 0.12; S 0.14; Q 0.49; F 0.1; Y -0.59; R 0.2; G -0.09; P 0.39; M 0.39; I 0.09; H -0.13; V 0.32
R30: N 0.64; A 0.22; S 0.04; E 0.42; P -0.15; G 0.59; C 0.31; L 0.15; M -0.06; K 0.16; V -0.05; D 0.85; F 0.27; Q 0.15; W 0.33; I -0.19; T 0.19; Y -0.56; H -0.02
